Results: US20210371530A1 (Merck Sharp & Dohme, published 2021)

What was measured:
human PD-1 on cells = human PD-1 on cells (human, UniProt Q15116 25-288); test: cell-based or functional assay
[1] = biological target: T1, polyhistidine-tagged human PD-1 (hPD1-His, 98AFK) (human, UniProt Q15116 25-167, limits assumed); test: SPR solution affinity; reference Humanized 08A IgG4 S61N (98AIO)
T1 construct: Lot 98AFK; also called human PD1-His; Human PD-1-His; not shown: polyhistidine tag
Protocol: The titration series were incubated for 16-24 hours to reach equilibrium at room temperature. The unbound sites were measured using a BIAcore chip immobilized with antigen in a competition mode where SPR signal detected corresponded to unbound antibody.
The titration series following >16 hr. incubation were injected over the sensor chip immobilized with hPD1-His (above). Free, unbound antibodies concentrations were measured as proportional to RU after 120 seconds (for 500 pM mAb series) or 400 seconds (for 100 pM mAb series) of injection at 10 μL/min. After each cycle, surfaces were regenerated with a 30 second injection of 1:1 mixture of 3M MgCl2 and pH 2.0 10 mM glycine at 30 μL/min
Data analyses were performed using KINEXA Pro Version 1.02 (Sapydyne) where RUs were normalized and plotted against concentrations.

[2] = biological target: T1, polyhistidine-tagged human PD-1 …; test: SPR capture format; reference Mouse 08A
Protocol: A surface plasmon resonance (SPR)-based assay utilizing capture mode was used to determine the binding kinetics and affinities of anti-PD-1 antibodies against polyhistidine-tagged human PD-1 (hPD1-His, 98AFK). Following manufacture instructions, a series S sensor chip CM5 (GE Healthcare, BR100530) was activated using an amine-coupling kit (GE Healthcare, BR100050). Either human capture kit (anti-human Fc, 25 μg/mL, GE Healthcare, BR100839) or mouse capture kit (anti-mouse Fc, 30 μg/mL, GE Healthcare, BR100838) antibody diluted in the supplied pH 5.0, 10 mM sodium acetate buffer was immobilized onto the activated surface for 7 minutes. After immobilization, surfaces were deactivated with 1M ethanolamine/HCl (pH 8.5) for 7 minutes. The final immoblization levels reached ˜8,000 resonance units (RU) for mouse capture or 12,000 RU for human capture in each of the four flow cells.
Binding kinetics were measured on a biacore T200 in HBS-EP+(0.01 M HEPES pH 7.4, 0.15 M NaCl, 3 mM EDTA, 0.05% v/v Surfactant P20) running buffer at 25° C. Antibodies were captured either on mouse or human Fc capture surfaces at 10 μL/min flow rate. Antibodies were captured on flow cells 2, 3 and 4. Flow cell 1 was used as a reference with no antibody captured. A 6-point, 2-fold serial dilutions of the analyte 98AFK (hPD1-His), starting at 20 nM, were prepared in the running buffer (HBS-EP+). Two buffer blanks were included for double referencing. Titration series were injected for 3 minutes at 50 μl/min followed by 600 seconds of dissociation. After each cycle, surfaces were regenerated with a 30 second injection of 3M MgCl2 at […] on the anti-human Fc chip or 180 seconds of 10 mM Glycine pH 1.7 at 10 μl/min on the anti-mouse Fc chip.
Sensorgram processing and data analysis were performed with Biacore T200 Evaluation Software Version 2.0.4 (GE Healthcare). […] Processed curves were globally fitted to a 1:1 binding model to determine the association rate constant, kₒₙ (M⁻¹s⁻¹, where “M” equals molar and “s” equals seconds) and the dissociation rate constant, koff (s⁻¹). These rate constants were used to calculate the equilibrium dissociation constant, KD (M)=koff/kₒₙ.

T1 sequence (Q15116 25-167 limits assumed): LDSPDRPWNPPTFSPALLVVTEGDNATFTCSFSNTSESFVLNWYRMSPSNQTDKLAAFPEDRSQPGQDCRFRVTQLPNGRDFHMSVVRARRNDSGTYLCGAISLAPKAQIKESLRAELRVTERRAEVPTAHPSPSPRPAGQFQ
human PD-1 on cells, sequence (Q15116 25-288): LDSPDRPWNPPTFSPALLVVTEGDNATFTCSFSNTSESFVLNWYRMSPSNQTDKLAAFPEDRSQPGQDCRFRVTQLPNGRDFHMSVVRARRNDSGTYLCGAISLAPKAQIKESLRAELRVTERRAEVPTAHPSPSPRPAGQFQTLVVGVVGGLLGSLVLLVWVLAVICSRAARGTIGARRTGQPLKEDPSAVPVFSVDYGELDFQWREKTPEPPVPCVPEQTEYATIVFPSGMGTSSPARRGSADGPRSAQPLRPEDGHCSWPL

B1: Anti-PD-1/LAG3 bispecific antibody 90ASU (bispecific antibody, human IgG1, kappa, L234A L235A)
heavy 1: not shown
light 1: DIVMTQTPLSLSVTPGQPASISCRASKSVSTSGFSYLHWYLQKPGQPPQLLIFLASNLESGVPDRFSGSGSGTDFTLKISRVEAEDVGVYYCQHSWELPLTFGQGTKLEIKRTVAAPSVFIFPPSDERLKSGTASVVCLLNNFYPREAKVQWKVDNALQSGNSQESVTEQDSKDSTYSLSSRLTLSKADYEKHKVYACEVTHQGLSSPVTKSFNRGEC
heavy 2: QMQLVQSGPEVKKPGTSVKVSCKASGYTFTDYNVDWVRQARGQRLEWIGDINPNDGGTIYAQKFQERVTITVDKSTSTAYMELSSLRSEDTAVYYCARNYRWFGAMDHWGQGTTVTVSSASTKGPSVFPLAPSSKSTSGGTAALGCLVKDYFPEPVTVSWNSGALTSGVHTFPAVLQSSGLYKLSSVVTVPSSSLGTQTYICNVNHKPSNTKVDKKVEPKSCDKTHTCPPCPAPEAAGGPSVFLFPPKPKDTLMISRTPEVTCVVVSVSHEDPEVKFNWYVDGVEVHNAKTKPREEQYNSTYRVVSVLTVLHQDWLNGKEYKCKVSNKALPAPIEKTISKAKGQPREPQVYVLPPSRDELTKNQVSLLCLVKGFYPSDIAVEWESNGQPENNYLTWPPVLDSDGSFFLYSKLTVDKSRWQQGNVFSCSVMHEALHNHYTQKSLSLSPG
light 2: DIVMTQTPLSLSVTPGQPASISCKASQSLDYEGDSDMNWYLQKPGQPPQLLIYGASNLESGVPDRFSGSGSGTDFTLKISRVEAEDVGVYYCQQSTEDPRTFGGGTKVEIKRTVAAPSVFIFPPSDEELKSGTATVVCLLNNFYPREAKVQWKVDNALQSGNSQESVTEQDSKDSTYSLSSYLELSKADYEKHKVYACEVTHQGLSSPVTKSFNRGEC
AVG EC50 (nM), IL-2 luciferase reporter, Jurkat.hPD-1.IL2luc + THP-1.PD-L1 assay (human PD-1 on cells): 2.54 nM

B2: Humanized 08A IgG4 S61N (lot 98AIO) (antibody)
heavy: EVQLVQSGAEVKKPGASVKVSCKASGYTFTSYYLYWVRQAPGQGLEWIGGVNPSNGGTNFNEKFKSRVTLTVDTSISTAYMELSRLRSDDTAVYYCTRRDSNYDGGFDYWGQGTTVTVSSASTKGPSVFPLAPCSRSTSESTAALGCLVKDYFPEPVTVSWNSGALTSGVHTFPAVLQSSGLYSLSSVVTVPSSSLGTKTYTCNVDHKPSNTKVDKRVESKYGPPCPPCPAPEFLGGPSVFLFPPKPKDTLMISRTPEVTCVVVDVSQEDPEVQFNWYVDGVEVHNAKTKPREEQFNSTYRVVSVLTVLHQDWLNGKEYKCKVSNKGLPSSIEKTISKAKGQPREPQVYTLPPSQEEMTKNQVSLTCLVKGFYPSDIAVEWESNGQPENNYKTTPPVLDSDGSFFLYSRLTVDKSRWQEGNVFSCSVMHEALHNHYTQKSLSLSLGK
light: DIVMTQTPLSLSVTPGQPASISCRASKSVSTSGFSYLHWYLQKPGQPPQLLIFLASNLESGVPDRFSGSGSGTDFTLKISRVEAEDVGVYYCQHSWELPLTFGQGTKLEIKRTVAAPSVFIFPPSDEQLKSGTASVVCLLNNFYPREAKVQWKVDNALQSGNSQESVTEQDSKDSTYSLSSTLTLSKADYEKHKVYACEVTHQGLSSPVTKSFNRGEC
notes: IgG4 S228P / kappa; also called 08A/HuPD1A-11 S61N S228P corrected IgG4 / Kappa
KD (REF) / KD [1]: 1 ratio
KD (REF) / KD [2]: 4.4 ratio

B3: Humanized 08A IgG4 (antibody, V domains shown)
VH: EVQLVQSGAEVKKPGASVKVSCKASGYTFTSYYLYWVRQAPGQGLEWIGGVNPSNGGTNFSEKFKSRVTLTVDTSISTAYMELSRLRSDDTAVYYCTRRDSNYDGGFDYWGQGTTVTVSS
VL: DIVMTQTPLSLSVTPGQPASISCRASKSVSTSGFSYLHWYLQKPGQPPQLLIFLASNLESGVPDRFSGSGSGTDFTLKISRVEAEDVGVYYCQHSWELPLTFGQGTKLEIKR
notes: IgG4 S228P / kappa, no CDRH2 corrections; also called 73AGG; 08A/HuPD1A-11 S228P IgG4 / Kappa
KD (REF) / KD [2]: 1.7 ratio

B4: Humanized 08A IgG4 S61N (lot 67AGG) (antibody)
heavy: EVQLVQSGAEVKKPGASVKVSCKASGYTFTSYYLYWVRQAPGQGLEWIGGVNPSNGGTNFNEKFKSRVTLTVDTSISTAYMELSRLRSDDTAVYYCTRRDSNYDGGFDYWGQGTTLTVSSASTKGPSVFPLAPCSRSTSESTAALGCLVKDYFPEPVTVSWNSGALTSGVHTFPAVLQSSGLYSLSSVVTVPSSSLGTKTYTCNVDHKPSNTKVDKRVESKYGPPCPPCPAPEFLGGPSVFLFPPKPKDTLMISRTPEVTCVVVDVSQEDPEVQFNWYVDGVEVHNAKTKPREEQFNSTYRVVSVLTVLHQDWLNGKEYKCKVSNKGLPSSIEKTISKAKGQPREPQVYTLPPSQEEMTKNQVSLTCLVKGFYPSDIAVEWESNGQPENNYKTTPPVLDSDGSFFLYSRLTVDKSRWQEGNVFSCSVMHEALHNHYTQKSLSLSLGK
light: DIVMTQTPLSLSVTPGQPASISCRASKSVSTSGFSYLHWYLQKPGQPPQLLIFLASNLESGVPDRFSGSGSGTDFTLKISRVEAEDVGVYYCQHSWELPLTFGQGTKLEIKRTVAAPSVFIFPPSDEQLKSGTASVVCLLNNFYPREAKVQWKVDNALQSGNSQESVTEQDSKDSTYSLSSTLTLSKADYEKHKVYACEVTHQGLSSPVTKSFNRGEC
notes: IgG4 S228P / kappa; differs from 98AIO by an HFR4 mutation; also called 08A/HuPD1A-11 S61N WT S228P IgG4 / Kappa, with HFR4 mutation
KD (REF) / KD [2]: 5.2 ratio

B5: Humanized 08A IgG4 Fab 098 G56A (antibody, V domains shown)
VH: EVQLVQSGAEVKKPGASVKVSCKASGYTFTSYYLYWVRQAPGQGLEWIGGVNPSNAGTNFSEKFKSRVTLTVDTSISTAYMELSRLRSDDTAVYYCTRRLSHYDGGFDYWGQGTTVTVSS
VL: DIVMTQTPLSLSVTPGQPASISCRASKSVSTSGFSYLHWYLQKPGQPPQLLIFLASNLESGVPDRFSGSGSGTDFTLKISRVEAEDVGVYYCQHSWELPLTFGQGTKLEIKR
notes: IgG4 S228P / kappa; also called 90AVZ
KD (REF) / KD [1]: 1.7 ratio
KD (REF) / KD [2]: 3 ratio

B6: Humanized 08A IgG4 S61N G56A (antibody, V domains shown)
VH: EVQLVQSGAEVKKPGASVKVSCKASGYTFTSYYLYWVRQAPGQGLEWIGGVNPSNAGTNFNEKFKSRVTLTVDTSISTAYMELSRLRSDDTAVYYCTRRDSNYDGGFDYWGQGTTVTVSS
VL: DIVMTQTPLSLSVTPGQPASISCRASKSVSTSGFSYLHWYLQKPGQPPQLLIFLASNLESGVPDRFSGSGSGTDFTLKISRVEAEDVGVYYCQHSWELPLTFGQGTKLEIKR
notes: IgG4 S228P / kappa; also called 51AQK; 08A/HuPD1A-11 S61N VH G56A IgG4 S228P / Kappa
KD (REF) / KD [1]: 1 ratio
KD (REF) / KD [2]: 4.2 ratio

B7: Humanized 08A IgG4 S61N N55E (antibody, V domains shown)
VH: EVQLVQSGAEVKKPGASVKVSCKASGYTFTSYYLYWVRQAPGQGLEWIGGVNPSEGGTNFNEKFKSRVTLTVDTSISTAYMELSRLRSDDTAVYYCTRRDSNYDGGFDYWGQGTTVTVSS
VL: DIVMTQTPLSLSVTPGQPASISCRASKSVSTSGFSYLHWYLQKPGQPPQLLIFLASNLESGVPDRFSGSGSGTDFTLKISRVEAEDVGVYYCQHSWELPLTFGQGTKLEIKR
notes: IgG4 S228P / kappa; also called 50AQK; 08A/HuPD1A-11 N55E S228P IgG4 / Kappa
KD (REF) / KD [2]: 0.8 ratio

B8: Humanized 08A IgG4 G56A (antibody, V domains shown)
VH: EVQLVQSGAEVKKPGASVKVSCKASGYTFTSYYLYWVRQAPGQGLEWIGGVNPSNAGTNFSEKFKSRVTLTVDTSISTAYMELSRLRSDDTAVYYCTRRDSNYDGGFDYWGQGTTVTVSS
VL: DIVMTQTPLSLSVTPGQPASISCRASKSVSTSGFSYLHWYLQKPGQPPQLLIFLASNLESGVPDRFSGSGSGTDFTLKISRVEAEDVGVYYCQHSWELPLTFGQGTKLEIKR
notes: IgG4 S228P / kappa; also called 89AVZ; 08A/HuPD1A-11 G56A IgG4 S228P / Kappa
KD (REF) / KD [1]: 0.6 ratio
KD (REF) / KD [2]: 2.4 ratio

B9: Mouse 09A (antibody, mouse IgG1, kappa, V domains shown)
VH: QVQLQQPGAELVKPGTSVKLSCKASGYTFTNYYMYWVKQRPGQGLEWIGGINPSNGGTNFNEKFKNKATLTVDSSSSTTYMQLSSLTSEDSAVYYCTRRDYRFDMGFDYWGQGTTLTVSS
VL: DIVLTQSPASLAVSLGQRAAISCRASKGVSTSGYSYLHWYQQKPGQSPKLLIYLASYLESGVPARFSGSGSGTDFTLNIHPVEEEDAATYYCQHSRDLPLTFGTGTKLELKR
notes: Mouse IgG1/kappa; also called 03AFN; Mouse x [PD-1_H] mAb (clone 09A) IgG1 / Kappa
KD (REF) / KD [2]: 0.5 ratio

B10: Mouse 08A (antibody, mouse IgG1, kappa, V domains shown)
VH: QVQLQQPGAELVKPGASVKLSCKASGYTFTSYYLYWMKQRPGQGLEWIGGVNPSNGGTNFSEKFKSKATLTVDKSSSTAYMQLSSLTSEDSAVYYCTRRDSNYDGGFDYWGQGTTLTVSS
VL: DIVLTQSPTSLAVSLGQRATISCRASKSVSTSGFSYLHWYQQKPGQPPKLLIFLASNLESGVPARFSGSGSGTDFTLNIHPVEEEDAATYYCQHSWELPLTFGAGTKLELKR
notes: Mouse IgG1/kappa; also called 09AFF; parental mouse 08A antibody
KD (REF) / KD [2]: 1 ratio

B11: Mouse 08A N59E (antibody, mouse IgG1, kappa, V domains shown)
VH: QVQLQQPGAELVKPGASVKLSCKASGYTFTSYYLYWMKQRPGQGLEWIGGVNPSNGGTEFSEKFKSKATLTVDKSSSTAYMQLSSLTSEDSAVYYCTRRDSNYDGGFDYWGQGTTLTVSS
VL: DIVLTQSPTSLAVSLGQRATISCRASKSVSTSGFSYLHWYQQKPGQPPKLLIFLASNLESGVPARFSGSGSGTDFTLNIHPVEEEDAATYYCQHSWELPLTFGAGTKLELKR
notes: also called 39AFL; Clone 1.08 N59E
KD (REF) / KD [2]: 0.03 ratio

B12: Mouse 08A N59Q (antibody, mouse IgG1, kappa, V domains shown)
VH: QVQLQQPGAELVKPGASVKLSCKASGYTFTSYYLYWMKQRPGQGLEWIGGVNPSNGGTQFSEKFKSKATLTVDKSSSTAYMQLSSLTSEDSAVYYCTRRDSNYDGGFDYWGQGTTLTVSS
VL: DIVLTQSPTSLAVSLGQRATISCRASKSVSTSGFSYLHWYQQKPGQPPKLLIFLASNLESGVPARFSGSGSGTDFTLNIHPVEEEDAATYYCQHSWELPLTFGAGTKLELKR
notes: also called 38AFL; Clone 1.08 N59Q
KD (REF) / KD [2]: 0.04 ratio

B13: Mouse 08A N59A (antibody, mouse IgG1, kappa, V domains shown)
VH: QVQLQQPGAELVKPGASVKLSCKASGYTFTSYYLYWMKQRPGQGLEWIGGVNPSNGGTAFSEKFKSKATLTVDKSSSTAYMQLSSLTSEDSAVYYCTRRDSNYDGGFDYWGQGTTLTVSS
VL: DIVLTQSPTSLAVSLGQRATISCRASKSVSTSGFSYLHWYQQKPGQPPKLLIFLASNLESGVPARFSGSGSGTDFTLNIHPVEEEDAATYYCQHSWELPLTFGAGTKLELKR
notes: also called 80AFH; Clone 1.08 N59A
KD (REF) / KD [2]: 0.4 ratio

B14: Humanized 08A IgG4 Fab 100 S61N G56A (antibody, V domains shown)
VH: EVQLVQSGAEVKKPGASVKVSCKASGYTFTSYYLYWVRQAPGQGLEWIGGVNPSNAGTNFNEKFKSRVTLTVDTSISTAYMELSRLRSDDTAVYYCTRRLSHYDGGFDYWGQGTTVTVSS
VL: DIVMTQTPLSLSVTPGQPASISCRASKSVSTSGFSYLHWYLQKPGQPPQLLIFLSKYRSSGVPDRFSGSGSGTDFTLKISRVEAEDVGVYYCSQAYHLPLTFGQGTKLEIKR
notes: also called 25AVE
KD (REF) / KD [1]: > 13 ratio
KD (REF) / KD [2]: 5.7 ratio
